Reference: paper PMC4381951, “Musashi proteins are post-transcriptional regulators of the epithelial-luminal cell state”
Residue numbers refer to the chain shown, from its start.

B1: Jag1 3' UTR region 2 (ssRNA)
RNA: UCAAAGUAGAAUUUUUGUAUAGUUAUGUAAAUAAU
B2: Jag1 3' UTR region 2 mutant (ssRNA)
RNA: B1 RNA with A8C, G9C, A21C, G22C
B3: Jag1 3' UTR region 1 (ssRNA)
RNA: UGUCCAGUUAGAUCACUGUUUAGAU
B4: Jag1 3' UTR region 1 mutant (ssRNA)
RNA: UGUCCAGUUCCAUCACUGUUUCCAU

Assays:
Details in all cases: protein: recombinant; tags: SBP tag (N-terminal); GST removed by PreScission
MSI1 (Musashi1) [1] = biological target: T1, MSI1 (Musashi1) (UniProt Q61474 1-362); assay: EMSA; mean of 2 gel shifts; EMSA buffer not given; RBNS: 25 mM Tris pH 7.5, 150 mM KCl, 3 mM MgCl2, 0.01% Tween, 1 mg/ml BSA, 1 mM DTT, 30 ug/ml poly I/C, room temperature
MSI1 (Musashi1) [2] = biological target: T1, MSI1 (Musashi1); assay: EMSA; EMSA buffer not given; RBNS: 25 mM Tris pH 7.5, 150 mM KCl, 3 mM MgCl2, 0.01% Tween, 1 mg/ml BSA, 1 mM DTT, 30 ug/ml poly I/C, room temperature
MSI1 (Musashi1) [3] = biological target: T1, MSI1 (Musashi1); assay: EMSA; no binding detected, Kd cannot be estimated; EMSA buffer not given; RBNS: 25 mM Tris pH 7.5, 150 mM KCl, 3 mM MgCl2, 0.01% Tween, 1 mg/ml BSA, 1 mM DTT, 30 ug/ml poly I/C, room temperature

T1 sequence (Q61474 whole entry): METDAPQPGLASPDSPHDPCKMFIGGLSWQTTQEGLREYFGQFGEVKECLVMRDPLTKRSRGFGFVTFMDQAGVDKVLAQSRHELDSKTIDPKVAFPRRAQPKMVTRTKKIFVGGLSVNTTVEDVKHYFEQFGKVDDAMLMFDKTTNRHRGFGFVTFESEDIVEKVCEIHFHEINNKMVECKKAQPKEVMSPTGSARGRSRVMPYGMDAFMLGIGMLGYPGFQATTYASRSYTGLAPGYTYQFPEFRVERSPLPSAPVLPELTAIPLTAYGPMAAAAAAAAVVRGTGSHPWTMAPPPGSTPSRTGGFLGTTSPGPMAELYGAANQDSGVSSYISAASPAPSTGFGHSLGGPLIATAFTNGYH

Binder	Kd (MSI1 (Musashi1) [1])	also measured
B1	9 nM	–
B2	–	Kd (MSI1 (Musashi1) [2]): 649 nM
B3	15 nM	–
B4	–	binding result (MSI1 (Musashi1) [3]): no binding
